From patent US10143747B2, “Breast cancer therapeutics” (IMBA—INSTITUT FÜR MOLEKULARE BIOTECHNOLOGIE GMBH, priority 2010, dated 2018) come the findings set out here.

For one assay, the system named is mammary epithelial cells. Briefly: γ-irradiation induced mammary epithelial cell apoptosis in vivo (active Caspase 3). Further details: species or system mouse. The conditions noted are these: MPA pellet, 5 Gray. The procedure: (§1) a, Western blotting for phosphorylated (P) IKKα, total IKKα, phosphorylated (P) p65 NFκB, total p65 NFκB, phosphorylated (P) IκBα, and total IκBα in isolated primary mouse mammary gland epithelial cells (MECs) in response to RANKL stimulation (1 μg/ml). β-actin is shown as loading control. b, Western blotting for IKKα, IKKβ, IKKγ, phosphorylated (P) p65 NFκB, total p65 NFκB, phosphorylated (P) IκBα, and total IκBα in pooled late stage mammary adenocarconimas (n=4 for each lane) that developed in control, RANK^Δmam and IKKΔ^Δmam females. β-actin is shown as loading control c, Expression of RANK, CyclinD1, and p21 mRNA in late stage mammary adenocacinomas that developed in control, RANK^Δmam, and IKKα^Δmam females. Expression was determined by qRT-PCR. […] Apoptosis was detected by immunostaining for active Caspase 3. f, Apoptotic nuclei of epithelial cells (arrows) are shown for representative mammary gland sections. Magnifications×40. g, Quantification of mammary epithelial apoptosis. A minimum of 5000 nuclei was counted for each mouse. […]
For measurement of cell cycle arrest and apoptosis primary mouse mammary epithelial cells and SKBR3 human breast cancer cells were seeded at a cell-density of 100000 cells/well in a 6-well plate and allowed to grow for 24 hours. […] Cell cycle arrest and numbers of dead cells were determined using propidium iodine staining. […]

The test system of assay [1] is primary mouse mammary gland epithelial cells (MECs). Briefly: Western blotting of RANKL-stimulated primary mouse mammary gland epithelial cells. Format: cell-based. Particulars: RANKL 1 μg/ml. How it is done:
as §1, with “qRT-PCR. Data are mean values+/−sem. n=4 per group. d, Soft-Agar Colony Formation Assay. Growth of human SKBR3 breast cancer cells in soft agar in response to stimulation with RANKL (1 μg/ml) or EGF (100 ng/ml). Anchorage-independent, macroscopic colonies formed after 18 days in culture with RANKL, which was prevented by the decoy receptor OPG (1 μg/ml).” for “qRT-PCR.”
In general terms: In western blotting, separated proteins are transferred to a membrane and probed.

For assay [2], the system named is human SKBR3 breast cancer cells. Description: Western blotting of RANKL-stimulated SKBR3 cells. Format: cell-based. The conditions noted are these: RANKL 1 μg/ml. How it is done:
a, Western blotting for phosphorylated (P) p65 NFκB, total p65 NFκB, phosphorylated (P) IκBα, total IκBα, phosphorylated (P) ERK1/2, total ERK1/2, phosphorylated (P) p38-MAPK, and p38-MAPK in human SKBR3 breast cancer cells in response to RANKL stimulation (1 μg/ml). Data are representative of 3 experiments. b, Growth curve of SKBR3 breast cancer cells cultured in normal growth medium (control, DMEM supplemented with 10% FCS) or in the presence of RANKL (1 μg/ml). Cell numbers were determined by counting live cells (trypan blue-exclusion) over 3 days. c, Onset of palpable mammary tumors in NFATc1^Δmam (n=10) and age matched littermate control (n=16) females treated with MPA pellets and DMBA. Data are shown as percentage of tumor free mice after the last DMBA challenge. No significant difference was found. d, Quantification of NFATc1 mRNA expression in purified mammary epithelial cells (MECs) and MPA-driven mammary tumors from NFATc1^Δmam and littermate control females. mRNA was determined by qRT-PCR. Data are shown as fold change compared to control (+/−sem). n=5 Per group. *P<0.05 (Student's t-test).
The human epithelial breast tumor cell line SKBR3 and primary non-transformed mouse mammary epithelial cells were left untreated or stimulated with recombinant murine RANKL^ref. 9. Adenocarcinomas were isolated from control and mutant mice and total protein lysates prepared. […]

On to `CC(=O)O[C@]1(C(C)=O)CC[C@H]2[C@@H]3C[C@H](C)C4=CC(=O)CC[C@]4(C)[C@H]3CC[C@@]21C` [MPA, medroxyprogesterone acetate], for which the “protective effect of MPA on γ-irradiation-induced cell death” value in the assay with mammary epithelial cells (RANKΔmam females) is on record as “abrogated the protective effects of MPA”. In addition, the “γ-irradiation-induced apoptosis of mammary epithelial cells in vivo” value with mammary epithelial cells (control females) was “protected from γ-irradiation-induced apoptosis”.

B1: RANKL: recombinant RANKL protein, ligand of RANK, used as stimulus (1 μg/ml or 1 μg i.p.) (protein, UniProt O35235 139-316, looked up)
Tumor necrosis factor ligand …: FSGAPAMMEGSWLDVAQRGKPEAQPFAHLTINAASIPSGSHKVTLSSWYHDRGWAKISNMTLSNGKLRVNQDGFYYLYANICFRHHETSGSVPTDYLQLMVYVVKTSIKIPSSHNLMKGGSTKNWSGNSEFHFYSINVGGFFKLRAGEEISIQVSNPSLLDPDQDATYFGAFKVQDID
On to B1, for which, in assay [1], the “p65 NFκB and IκBα phosphorylation” value is “resulted in p65 NFκB and IκBα phosphorylation”; the “phosphorylation of p38-MAPKs and ERK” value was “triggered phosphorylation of p38-MAPKs and ERK”. For the same molecule, the “NFκB, p38-MAPKs and ERK activation” value in assay [2] is “induced NFκB, p38-MAPKs and ERK activation”.
